For one assay, the target named is FcγRIIaR. In words: SPR.
Another assay deals with FcγRIIIaF. In words: SPR. For orientation: Surface plasmon resonance follows binding to a sensor surface in real time, without labels.
For assay [1], the target named is recombinant human FcγRIIb protein (R&D Systems) (human) (UniProt P31994). In words: SPR (Biacore 3000), antibody captured on protein A/G chip, FcγR injected, 1:1 Langmuir fit.
Assay [2] shares this target. Nature of the assay: Biacore, 'according to the data herein'.

By Kd is commonly meant the equilibrium constant for the complex coming apart.

Sequence of recombinant human FcγRIIb protein (R&D Systems) (human) (P31994 46-217 limits assumed): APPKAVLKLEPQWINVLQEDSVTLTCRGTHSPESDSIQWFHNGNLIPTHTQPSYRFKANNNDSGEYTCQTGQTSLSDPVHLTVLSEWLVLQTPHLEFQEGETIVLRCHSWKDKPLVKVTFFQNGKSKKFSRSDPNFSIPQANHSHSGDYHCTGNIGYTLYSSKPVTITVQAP

A327D had a Kd in the assay with FcγRIIaR of 536 nM.
A327G yielded a Kd in the assay with FcγRIIaR of 2690 nM.
In the case of A327N, in the assay with FcγRIIaR, the Kd came to 1410 nM.
As to A327Q, the Kd in the assay with FcγRIIaR amounted to 1350 nM.
In turn, D265E returned a Kd with FcγRIIaR of 2790 nM.
The same measure, in the same setting: with H268D the figure was 205 nM; with H268E, 269 nM; with H268N, 481 nM.
The substance H268Q showed a Kd in the assay with FcγRIIaR of 544 nM.
In the case of L328F, the Kd with FcγRIIaR amounted to 166 nM; with FcγRIIIaF it was 5110 nM.
In turn, P329E showed an equilibrium dissociation constant (Kd) in the assay with FcγRIIaR of 10000 nM.
For S239D/S267E/L328F, the equilibrium dissociation constant (Kd) in the assay with FcγRIIaR is 2.06 nM.
As for S239E, the Kd in the assay with FcγRIIaR was 1250 nM.
The substance S239N returned a Kd with FcγRIIaR of 990 nM.
In turn, S239Q returned a Kd with FcγRIIaR of 1010 nM.
Turning to S267A, in the assay with FcγRIIaR, the Kd is 200 nM.
Regarding S267D, in the assay with FcγRIIaR, the Kd amounted to 95.5 nM.
The substance S267E registered a Kd with FcγRIIaR of 29.1 nM.
As to S267E/A327D, the Kd with FcγRIIaR worked out at 51.3 nM.
Regarding S267E/A327E, the Kd with FcγRIIaR is 29.3 nM.
Substance S267E/H268E gave a Kd with FcγRIIaR of 20.6 nM.
Regarding S267E/H268E/L328F, in the assay with FcγRIIaR, the Kd is 3.4 nM.
The same measure, in the same setting: with S267E/L328H the figure was 185 nM; with S267E/L328I, 11.6 nM.
In the case of S267E/L328Y, the Kd in the assay with FcγRIIaR was 7.06 nM.
As for S267E/N325L, the Kd with FcγRIIaR turned out to be 20.7 nM.
On the same count and under the same terms, with S267G the figure was 517 nM.
For the substance S298D, in the assay with FcγRIIaR, the Kd worked out at 592 nM.
For the substance V266D, the Kd with FcγRIIaR turned out to be 1220 nM.
Substance V266M registered a Kd with FcγRIIaR of 274 nM.
V266M/S267E yielded a Kd with FcγRIIaR of 28 nM.
Consider “anti-CD19 antibody HuAM4G7, WT (native) IgG1”, for which the Kd in assay [1] came out at 1800 nM; in assay [2] it was 2000 nM.

For the origin of these results see patent US20160060360A1.
